Data on 15 molecules can be found in patent US20100196390A1 (RINAT NEUROSCIENCE, published 2010).

To fix the notation:
B1: 3-G7 (Fab, V domains shown)
VH: QVQLVQSGAEVKKPGASVKVSCKASGYTFTNYVILWVRQAPGQGLEWMGYINPYNDGTKYNEKFKGRVTMTRDTSTSTVYMELSSLRSEDTAVYYCARLLKYRRFSYYAEDYWGQGTTVTVSS
VL: DIQMTQSPSSLSASVGDRVTITCRASENVYSNLAWYQQKPGKAPKLLIYAASNLQSGVPSRFSGSGSGTDFTFTISSLQPEDIATYYCQNFWYSPFTFGQGTKLEIK
notes: Fab
B2: 4-A1 (Fab, V domains shown)
VH: QVQLVQSGAEVKKPGASVKVSCKASGYTFTNYVILWVRQAPGQGLEWMGYINPYNDGTKYNEKFKGRVTMTRDTSTSTVYMELSSLRSEDTAVYYCARLLKYRRFSYYAIDYWGQGTTVTVSS
VL: DIQMTQSPSSLSASVGDRVTITCRASENVYSNLAWYQQKPGKAPKLLIYAASNLQSGVPSRFSGSGSGTDFTFTISSLQPEDIATYYCQHFYYSPFTFGQGTKLEIK
notes: Fab
B3: 4-C7 (Fab, V domains shown)
VH: QVQLVQSGAEVKKPGASVKVSCKASGYTFTNYVILWVRQAPGQGLEWMGYINPYNDGTKYNEKFKGRVTMTRDTSTSTVYMELSSLRSEDTAVYYCARLLKYRRFSYYAIDYWGQGTTVTVSS
VL: DIQMTQSPSSLSASVGDRVTITCRASENVYSNLAWYQQKPGKAPKLLIYAASNLQSGVPSRFSGSGSGTDFTFTISSLQPEDIATYYCQHFWGSPFTFGQGTKLEIK
notes: Fab
B4: 4A6-12 (Fab, V domains shown)
VH: QVQLVQSGAEVKKPGASVKVSCKASGYTFTNYDIIWVRQAPGQGLEWMGYINPYNRRRKYNEKFKGRVTMTRDTSTSTVYMELSSLRSEDTAVYYCARLLKYRRFRYYAIDYWGQGTTVTVSS
VL: DIQMTQSPSSLSASVGDRVTITCHASENVYSNLAWYQQKPGKAPKLLIYAASNLQSGVPSRFSGSGSGTDYTFTISSLQPEDIATYYCQHFWGSPFTFGQGTKLEIK
notes: Fab
B5: 4B12-6 (Fab, V domains shown)
VH: QVQLVQSGAEVKKPGASVKVSCKASGYTFTNYDIIWVRQAPGQGLEWMGYINPYNGGREYNEKFKGRVTMTRDTSTSTVYMELSSLRSEDTAVYYCARLLKYRRFRYYAIDYWGQGTTVTVSS
VL: DIQMTQSPSSLSASVGDRVTITCRASEPVYSNVAWYQQKPGKAPKLLIYAASNLQSGVPSRFSGSGSGTDYTFTISSLQPEDIATYYCQHFWGSPFTFGQGTKLEIK
notes: Fab
B6: 4-E1 (Fab, V domains shown)
VH: QVQLVQSGAEVKKPGASVKVSCKASGYTFTNYVILWVRQAPGQGLEWMGYINPYNDGTKYNEKFKGRVTMTRDTSTSTVYMELSSLRSEDTAVYYCARLLKYRAFSYYAIDYWGQGTTVTVSS
VL: DIQMTQSPSSLSASVGDRVTITCRASENVYSNLAWYQQKPGKAPKLLIYAASNLQSGVPSRFSGSGSGTDFTFTISSLQPEDIATYYCQHFWGSPFTFGQGTKLEIK
notes: Fab
B7: 4B12-5 (Fab, V domains shown)
VH: QVQLVQSGAEVKKPGASVKVSCKASGYTFTNYDIIWVRQAPGQGLEWMGYINPYNDRREYNEKFKGRVTMTRDTSTSTVYMELSSLRSEDTAVYYCARLLKYRRFRYYAIDYWGQGTTVTVSS
VL: DIQMTQSPSSLSASVGDRVTITCRASEPVYSNVAWYQQKPGKAPKLLIYAASNLQSGVPSRFSGSGSGTDYTFTISSLQPEDIATYYCQHFWGSPFTFGQGTKLEIK
notes: Fab
B8: 3-H8 (Fab, V domains shown)
VH: QVQLVQSGAEVKKPGASVKVSCKASGYTFTNYVILWVRQAPGQGLEWMGYINPYNDGTKYNEKFKGRVTMTRDTSTSTVYMELSSLRSEDTAVYYCARLLKYRRFRYYAIDYWGQGTTVTVSS
VL: DIQMTQSPSSLSASVGDRVTITCRASENVYSNLAWYQQKPGKAPKLLIYAASNLQSGVPSRFSGSGSGTDFTFTISSLQPEDIATYYCQHFWYSPFVFGQGTKLEIK
notes: Fab
B9: 4B12-4 (Fab, V domains shown)
VH: QVQLVQSGAEVKKPGASVKVSCKASGYTFTNYDIIWVRQAPGQGLEWMGYINPYNARREYNEKFKGRVTMTRDTSTSTVYMELSSLRSEDTAVYYCARLLKYRRFRYYAIDYWGQGTTVTVSS
VL: DIQMTQSPSSLSASVGDRVTITCRASEPVYSNVAWYQQKPGKAPKLLIYAASNLQSGVPSRFSGSGSGTDYTFTISSLQPEDIATYYCQHFWGSPFTFGQGTKLEIK
notes: Fab
B10: 4B12-2 (Fab, V domains shown)
VH: QVQLVQSGAEVKKPGASVKVSCKASGYTFTNYDIIWVRQAPGQGLEWMGYINPYQGRREYNEKFKGRVTMTRDTSTSTVYMELSSLRSEDTAVYYCARLLKYRRFRYYAIDYWGQGTTVTVSS
VL: DIQMTQSPSSLSASVGDRVTITCRASEPVYSNVAWYQQKPGKAPKLLIYAASNLQSGVPSRFSGSGSGTDYTFTISSLQPEDIATYYCQHFWGSPFTFGQGTKLEIK
notes: Fab
B11: 4-D4 (Fab, V domains shown)
VH: QVQLVQSGAEVKKPGASVKVSCKASGYTFTNYVILWVRQAPGQGLEWMGYINPYNDGTKYNEKFKGRVTMTRDTSTSTVYMELSSLRSEDTAVYYCARLLKYRRFRYYAIDYWGQGTTVTVSS
VL: DIQMTQSPSSLSASVGDRVTITCRASENVYSNLAWYQQKPGKAPKLLIYAASNLQSGVPSRFSGSGSGTDFTFTISSLQPEDIATYYCQHFWYSPFTFGQGTKLEIK
notes: Fab
B12: 4B12-3 (Fab, V domains shown)
VH: QVQLVQSGAEVKKPGASVKVSCKASGYTFTNYDIIWVRQAPGQGLEWMGYINPYVGRREYNEKFKGRVTMTRDTSTSTVYMELSSLRSEDTAVYYCARLLKYRRFRYYAIDYWGQGTTVTVSS
VL: DIQMTQSPSSLSASVGDRVTITCRASEPVYSNVAWYQQKPGKAPKLLIYAASNLQSGVPSRFSGSGSGTDYTFTISSLQPEDIATYYCQHFWGSPFTFGQGTKLEIK
notes: Fab
B13: 4-F10 (Fab, V domains shown)
VH: QVQLVQSGAEVKKPGASVKVSCKASGYTFTNYVILWVRQAPGQGLEWMGYINPYNDGTKYNEKFKGRVTMTRDTSTSTVYMELSSLRSEDTAVYYCARLLKYRRFSYYAIDYWGQGTTVTVSS
VL: DIQMTQSPSSLSASVGDRVTITCRASENVYSNLAWYQQKPGKAPKLLIYAASNLQSGVPSRFSGSGSGTDFTFTISSLQPEDIATYYCQQFWYSPFTFGQGTKLEIK
notes: Fab
B14: 4B12-7 (Fab, V domains shown)
VH: QVQLVQSGAEVKKPGASVKVSCKASGYTFTNYDIIWVRQAPGQGLEWMGYINPYNGRTEYNEKFKGRVTMTRDTSTSTVYMELSSLRSEDTAVYYCARLLKYRRFRYYAIDYWGQGTTVTVSS
VL: DIQMTQSPSSLSASVGDRVTITCRASEPVYSNVAWYQQKPGKAPKLLIYAASNLQSGVPSRFSGSGSGTDYTFTISSLQPEDIATYYCQHFWGSPFTFGQGTKLEIK
notes: Fab
B15: 4-B2 (Fab, V domains shown)
VH: QVQLVQSGAEVKKPGASVKVSCKASGYTFTNYVILWVRQAPGQGLEWMGYINPYNDGTKYNEKFKGRVTMTRDTSTSTVYMELSSLRSEDTAVYYCARLLKYRRFRYYAIDYWGQGTTVTVSS
VL: DIQMTQSPSSLSASVGDRVTITCRASENVYSNLAWYQQKPGKAPKLLIYAASNLQSGVPSRFSGSGSGTDFTFTISSLQPEDIATYYCQHFWGSPFTFGQGTKLEIK
notes: Fab

Sequence of TrkB (Q16620 32-430 limits assumed): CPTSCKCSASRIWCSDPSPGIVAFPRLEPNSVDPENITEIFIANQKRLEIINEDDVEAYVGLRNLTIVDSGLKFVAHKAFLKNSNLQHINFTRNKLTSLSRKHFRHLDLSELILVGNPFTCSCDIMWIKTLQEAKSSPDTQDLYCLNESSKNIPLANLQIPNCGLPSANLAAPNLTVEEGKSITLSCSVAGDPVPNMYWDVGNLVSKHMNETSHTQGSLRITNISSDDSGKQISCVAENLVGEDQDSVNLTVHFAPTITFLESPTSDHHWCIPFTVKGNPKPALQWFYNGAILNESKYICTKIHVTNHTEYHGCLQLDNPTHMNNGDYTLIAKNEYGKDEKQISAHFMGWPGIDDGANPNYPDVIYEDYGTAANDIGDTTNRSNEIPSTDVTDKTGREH

The test has as its target TrkB (Homo sapiens (Human), UniProt Q16620 32-430). Put plainly: koff of Fab at 25 C; T1/2=Log2/koff. Summed up: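 Monovalent Fab fragments were tested at 25° C by surface plasmon resonance on a Biacore instrument, against TrkB extracellular-domain monomer amine-coupled to the chip at low capacity. Fabs were injected low to high as a 3-fold serial dilution from 100 nM for 84 sec, with a 10 minute dissociation after the top sample. The dissociation half-life was calculated from koff, which was fitted to a Langmuir binding model in BIAevaluation. The formula used was T1/2 = Log 2/koff.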
B1 gave a T1/2 of 0.92 min.
B2: the T1/2 came out at 0.93 min.
For B3 the value was 1.4 min.
For B4, the T1/2 is 74.2 min.
In turn, B5 registered a T1/2 of 3.7 min.
Molecule B6 gave a T1/2 of 0.71 min.
The figure for B7 is 16.1 min.
As to B8, the T1/2 came out at 0.81 min.
The figure for B9 is 11.4 min; for B10 it is 5.8 min; for B11 it is 1.24 min.
The figure for B12 is 6.6 min; for B13 it is 1.03 min; for B14 it is 7.6 min.
Consider B15, for which the T1/2 worked out at 1.33 min.
